Experiment: yeast display, Sf9 membrane polyspecificity reagent, FACS + sequencing; frameworks hold sequencing errors
Procedure, shortened: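 Sorting gates, low and high (top ~1%), were placed on anti-HA fluorescence to track expression and on streptavidin fluorescence to track reagent binding. A clone's polyreactivity label is taken from the gate it came out of. The reagent was 10% biotinylated, detergent-solubilized Sf9 membrane, applied for 1 hour at 4 °C to galactose-induced yeast display cells.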

Row | Sequence | polyreactivity (PSR sort gate)
1 | QDQLVESGGGLVQAGGSLRLSCAASGSTFWFYAMGWSRQAPGKEWELVAVISNSGSTYYADSVKGRFTISRDNAKNTVYLQLNSLKPEDTAVYYCNTDGGGDSYWYDYWGQGTQVTVSS | low polyreactivity
2 | QVQLVESGGGLVQAGGSLRLSCAASGSIYTYYAMGWYRQAPGKERELVAAINSGGRTNYADSVKGRFTISRDNAKNTVYLQMNSLKPEDTAVYYCAADGSVSYYTYYYWGQGTQVTVSS | low polyreactivity
3 | QVQLVESGGGLVQAGGSLRLSCAASGLTFDAYAMGWYRQAPGKERELVAAISSGGNSYYADSVKGRFTISRDNAKNTVYLQMNSLKPEDTAVYYCNAVGYYKYFFLAYEYDYWGQGTQVTVSS | low polyreactivity
4 | QVQLVESGGGLVQAGGSLRLSCAASGFTFKLYAMGWYRQAPGNEREWVAAIRRGGTTNYADSVKGRFTISRDTAKNTVYLQMNSLKPEDTAVYYCAADGWYPGVYYPYTEFDYWGQGTQVTVSS | high polyreactivity
5 | QVHLVESGGGLVQAGGSLRLSCAASGITFFWYTMGWYRQAPGKDRELVAAISESGGDTYYADSVKGRFTISRDNAKNTVYLQMKILKPEDTAVYYCAADDSYYGLDYWGQGTQVTVSS | low polyreactivity
6 | QVQLVESGGGLVQAGGSLRLSCAASGSIFYVYAMGWYRQAPGKERELVAAITNYADSVKGRFTISRDNAKNTVYLQMNSLKPEDTAVSYCAADWWRVEMDYWGQGTQVTVSS | low polyreactivity
7 | QVQLVESGGGLVQAGGSLRLSCAASGSILYSNMGWYRQAPGKERELVAAITYSGGRTYYADSVKGRFTISRDNAKNTVYLQMNSLKPEDTAVYYCAARLATYGASTYYYWGQGTQVTVSS | high polyreactivity
8 | QVQLVESGGGLVQAGGSLRLSCAASGFIFRQDAMGWYRQAPGKERELVAAISWRGGSTYYADSVKGRFTISRDNAKNTEYLQMNSLKPEDTAVYYCATRQTKYSNYRGDYWGQGTQVTVST | high polyreactivity
9 | QVQLVESGGGLVQAGGSLRLSCAASGITFFAYTMGWYRQAHGKERELVASISSSGGSTNYADSVKGRFTISRDNAKNTVYLQMNSLKPEDTAVYYCAARQSLYRGGRWYDYWGQGTQVTVSS | high polyreactivity
10 | QVQLLESGGGLVQAGRSLRLSCAASGNTFDEYVKGWYRQAPGKESELDASIDWSGGGTYYADSVKGRFTISRDNAKNTVYLQMNSLKPEDTAVFYCNADYFDYSRTRYDYWGQGTQVNVSS | low polyreactivity
11 | QVQLVESGGGLVQAGGSLRLSCAASGRIFVQYAMGWYRQAPGKERELVAAISGSGGRTYYADSVKGRFTISRDNAKNTVYLQMNSLKPEDTAVYYCNTARRHGQTQGGDYWGQGTQLTVSS | high polyreactivity
12 | QVQLVESGGGLVQAGGSLRLSCAASGRTFVRYAMGWYRQAPGKERELVAAISTSGGNTYYADSVKGRFTISRDNAKNTVYLQMNSLKPEDTAVYYCAKDRGPNAKFDYWGQGTQVTVSS | low polyreactivity
13 | QVQLVESGGGLVQAGGSLRLSCAASGFTFNQNAMGWYRQAPGKERELVAAISASGGSTYYADSVKGRFTISRDNAKNTVYLQMNSLKPEDTAVYYCAARGTYRYTKYNYWGQGTQVTVSS | high polyreactivity
14 | QVQLVESGGGLVQAGGSLRLSCAASGSIIVTYAMGWYRQAPGKERELVATISGGGSTTYADSVKGRFTISRDNAKNTVYLQMNSLKPEDTAVYYCATDARYTSHRTAGYDYWGQGTQVTVSS | low polyreactivity
15 | QVQLVESGGGLVQGGGSLRLSCASSGNTFYYYAMGWYRQAPGKERELVAAITRGGSTNYADSVKGRFTISRDNAKNTVYLEMISLKPEDTSVYYCAAEQRAPRFADYDYWGQGTQVTVSS | low polyreactivity
16 | QVQLVESGGGLVQAGGSLRLSCAASGRIFHPNAMGWYRQAPGKERELVAAITNSGGITYADSVKGRFTISRDNAKNTVYLQMNSLKPEDTAVYYCNTATNRFHYKYRKPYDYWGQGTQVTVSS | low polyreactivity
17 | QVQLVESGGGLVQAGGSLRLSCAASGFIFSANAMGWYRQAPGKERELVAVISWNGDGTYYADSVKGRFTISRDNAKNTVYLQMNSLKAEDTAVYYCAALSYAYRSQSRRYGYRFDYWGQGTQVTVSS | high polyreactivity
18 | QVQLVESGGGLVQAGGSLRLSCAASGRTFASYVMGWYRQAPGKERELVASITRTGSTYYADSVKGRFTISRDNAKNTVYLQMNSLKPEDTAVYYCNAATFYRRSSTRGFNYWGQGTQVTVSS | high polyreactivity
19 | QVQLVESWGGLVQAGGSLRLSCAASGSTFTTNAMGWYRQAPGKERELVATMSGGGSTYYADSVKGSFTISRDNAKHTVYLQTNSLKPEDTAVYYCAKPTYRFYWGDFDYWGQGTQVTLSS | low polyreactivity
20 | QVQLVESGGGLVQAGGSLRLSCAASGLIFYPYAMGWYRQAPGKERELVAAITSGDSTYYADSVKGRFTISRDNAKNTVYLQMNSLKPEDTAVYYCNADASYYYYHSDTVYGFDYWGQGTQVTVSS | low polyreactivity
21 | QVQLVESGGGLVQAGGSLRLSCAASGRTYNPYAMGWYRQAPGKERELVAVISSIGGSTYADSVTGRFTISRDNAKNTVYLQMNSLKTEDTAVFYCNRATFGQWGGDYWGQGTQVTVSS | high polyreactivity
22 | QVQLVESGGGLVQAGGSLRLSTAASGIIFWYNAMGWYRQAPGKERELVAAISTGGSTNYADSVKGRFTISRDNAKNTVYLQMNSLKPEDTAVYYCAADWHRSYGAYDYWGQGTQVNVSS | low polyreactivity

Row | Sequence | polyreactivity (PSR sort gate)
23 | QVQLVESGGGLVQAGGSLRLSCAASGRTFPNYAMGWYRQAPGKERELVAAISYSGGTTYYADSVKGRFTISRDNAKNTVYLQMNSLKPEDTAVYDCNALRLGYGLFHYDYWGQGTQVTVSS | low polyreactivity
24 | QVQLVESGGGLVQAGGSLRLSCAASGSIFVSYAMGWYRQAPGKERELVAAITSAGTTYYADSVKGRFTISRDNAKNTVYLQMNSLKQEDTAVYYCNTDASFKRTRVSPETEYGYWGQGTQVTVSS | low polyreactivity
25 | QVQLVDSGGGLVQAGGSLRLICAASGRNLYAYSMGWYRQAPWQQRELVGAITSGASTYYADSVKGRFTISRDNAKTNVYLQMKRLKPEDTAVYYCAKSVRYYKPGYDYWGQGTQVTVSS | low polyreactivity
26 | QVQLVESGGALVQAGASLRLSCAASGFTFWDYAMGWYRQAPGKERELVAAISDNDGSTDYADSVKGRFTISRDIAKNSVYLQMNSLKPEDTAVYSCNAEIELPSKVGDYWGQGTLVTVSS | low polyreactivity
27 | QVQLVESGGGLVQAGGSLRLSCAASGSIFTIYAMGWYRQAPGKERELVAAITWSGGSTYYADSVKGRFTISRDNAKNTVYLQMNSLKPEDTAVYYCAAKYYGEMYYWGQGTQVTVSS | low polyreactivity
28 | QVQLVESGGGLVQAGGSLRLSCAASGSTFKVYAMGWYRQAPGKERELVAAISRSGGRTYYADSVKGRFTISRDNEKNTVYLQMNSLKPEDTAVYYCNSDYTYSQGHYSGSYDYWGQGSQVTVSS | high polyreactivity
29 | QVQLVERGGGLVQAGGSLRLSCAASGRIFYVNTMGCYRQAPGKERELVATISSAASTNYADSVKGRFTISRDHAKNTVYLQMNSLKPEETAVYYCNAALYKEYYYWGQGTQVTVSS | low polyreactivity
30 | QVQLVESVGCLVQARGSLRLSCAASGFTFPHYAMGWYRQAPGKERELVAVISWSGSSTYYADSVKGRFTISRDNAKNTVYLKMNSLKPVVNAVYYCNTRKLYQVDYDYWGQGSQVTVSS | high polyreactivity
31 | QVQLVESGGGLVQAGGSLRLSCAASGRTFKYNAMGWYRQAPGKERELVAVIRYSGGTTYYADSVKGRFTISRDNAKNTVYLQMNSLKPEDTAVYYCNADGPYVLPGWYFRTDNSWGQGTQVTVSS | low polyreactivity
32 | QVQLVDSGGGLVQAGGSLRLSCAASGRTCYTNAMGWYRQAPGKERELVAAINRSGGSTYYADSVKGRFTISRDNAKNTVYLQMNSLKPEDTAVYYCNKAFTHTKYLSPIAYEYGYWGQGTQVTVSS | low polyreactivity
33 | QVQLVESGGGLVQAGGSLRLSCAASGSTFGYYAMGWYRQAPGKERELVAAISYNTGSTYYADSVKGRFTISRDNAKNTVYLQMNSLKPEDTAVFYCAASRSRYSVNWYNYWGQGTQVTVSS | high polyreactivity
34 | QVQLVESGGGLVQAGGSLRLSCAASGSTFDTNAMGWYRQAPGKERELVATITSIGGSKYADSVKGRFTISRDNAKNTVYLQMNSLIPEDTAVYYCATDYVEIDYDYDYWGQGTQVSVSS | low polyreactivity
35 | QVQLVESGGGLVQAGGSLRLSCAASGSTFKRYAMGWYRQAPGKERALVASISSGGSTNYADSVKGRFTISRDNAKNTVYLQMHSLKPEDTAVYYCAVSYRSFRYYWERYYSWGQGTQVTVSS | high polyreactivity
36 | QVQLVESGGGLVQAGGSLRLSCAASGSTFVRYVMGWYRQAPGKERELVAAISRRGGSTYYADSVKGRFTISRDNAKNTVYLQMNSLKPEDTAVYYCARTVGYRTLLESDSWGQGTQVTVSS | high polyreactivity
37 | QVQLVESGGGLVQAGGSLRLSCAASGSTFLSYAMGWYRQAPGKERELVAAISWSDVNTYYADSVKGRFTISRDNAKNTVYLQMNSLKPEDTAVYYCNARYYLYWGQGTQVTVSS | low polyreactivity
38 | QVQLVESGGGLVQAGGSLRLSCAASGRTFISYAMGWYRQAPGKERELVAGISRGGSTYYADSVKGRFTISRDNAKNTVYLQMNSLKPEDTAVYYCAARRWISSHSYKYGYWGQGTQVTVSS | high polyreactivity
39 | QVQLVESGGGLVQAGGSHRLSCAASGRTFSPYVMGWSREAPGKEREYVARITWSGGSTYYADSVKGRFTISRDNAMYTVYLQMNSLKPEDTAVYYCNARGVFYVYKHDYWGQGTQVTVSS | high polyreactivity
40 | QVQLVESGGGLVQAGGSLRLSCAASGLTFKWYAMGWYRQAPGKERELVAASSRDGSTYYADSVKGRFTLSRDNAKNTVYLQMTSLKPEDTAVDYCAADIWPSSLLADEYDYWGQGTQVTVSS | high polyreactivity
41 | QVQLVESGGGLVQAGGSLRLSCASSGLTFGGYTMGLSRQAPGKERELVAAITSGGSTYYADSVKGRFTISRDNAKNTVYLQMNSLKPEDTAVYYCAARVRGWPVSKFGYWGQGTQVTVSS | high polyreactivity
42 | QVQLVESGGGLVQAGGSLRLSCAASVSIILDNAMGWYRQAPGKERELVASIDWSGGSTDYADSVKGRFTISRDNAKNTVYLQMNSLKPEDTAVYYCNAERYPYRLRARKLDYWGQGTQVTVSS | low polyreactivity
43 | QVQLVESGGGCSGGRSLRLSCAASGLIFDDNAMGWYRQAPGKERELVAAITWSTSSTYYADSVKGRFTISRDNAKNNVYLQMNSLKREDTAVYYCNKRYKFRYYYWGQGTQVTVSS | low polyreactivity

— the nanobody polyreactivity screen of Harvey et al. (2022)
